In paper PMC6157868, “Characterization of novel glycosyl hydrolases discovered by cell wall glycan directed monoclonal antibody screening and metagenome analysis of maize aerial root mucilage” (PLoS ONE, 2018) one finds Km, kcat and kcat/Km data, which are given here for five molecules.

For data set [1], the target named is T1, α-N-Arabinofuranosidase (FjArf51) (Flavobacterium johnsoniae, UniProt A5FF88).
T1 construct: gene Fjoh_3113; full-length codon-optimised synthetic gene, pET-28a(+), C-terminal 6xHis, E. coli BL21(DE3) pLysS, 75 kDa
T1 sequence (A5FF88 1-661): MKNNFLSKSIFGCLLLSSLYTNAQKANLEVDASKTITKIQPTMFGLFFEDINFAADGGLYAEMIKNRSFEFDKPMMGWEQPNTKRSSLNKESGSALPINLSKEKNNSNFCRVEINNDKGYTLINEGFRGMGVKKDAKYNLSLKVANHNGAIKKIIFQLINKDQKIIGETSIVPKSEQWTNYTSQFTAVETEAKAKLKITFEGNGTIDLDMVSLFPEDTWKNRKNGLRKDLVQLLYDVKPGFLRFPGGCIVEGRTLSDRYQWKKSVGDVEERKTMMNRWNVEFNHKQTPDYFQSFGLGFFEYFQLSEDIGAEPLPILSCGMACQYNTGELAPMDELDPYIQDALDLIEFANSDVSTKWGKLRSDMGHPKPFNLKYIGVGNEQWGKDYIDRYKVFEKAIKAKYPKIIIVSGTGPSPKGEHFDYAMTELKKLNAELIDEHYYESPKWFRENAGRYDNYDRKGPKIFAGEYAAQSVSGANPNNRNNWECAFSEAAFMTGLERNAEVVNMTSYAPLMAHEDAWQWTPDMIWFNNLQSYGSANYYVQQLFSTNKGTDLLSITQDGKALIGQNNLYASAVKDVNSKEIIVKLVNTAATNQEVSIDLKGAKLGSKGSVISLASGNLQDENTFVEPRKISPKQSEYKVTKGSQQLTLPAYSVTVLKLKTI
Description: 4-nitrophenol release at […] nm, Michaelis-Menten fit. It counts as biochemical. The settings on record: 30 °C, pH 7, 50 mM phosphate.

Substrate in data set [2]: O=[N+]([O-])c1ccc(O[C@@H]2OC[C@@H](O[C@@H]3OC[C@@H](O[C@@H]4OC[C@@H](O)[C@H](O)[C@H]4O)[C@H](O)[C@H]3O)[C@H](O)[C@H]2O)cc1
Briefly: purified protein. It counts as biochemical, Spirosoma linguale. The settings on record: 30 °C, pH 6, 50 mM phosphate.

Substrate in data set [3]: O=[N+]([O-])c1ccc(O[C@@H]2O[C@H](CO)[C@@H](O)[C@H](O)[C@@H]2O)cc1
Description: purified protein. The data set is classed as biochemical, Agrobacterium fabrum. The settings on record: 30 °C, pH 7, 50 mM phosphate.

Substrate in data set [4]: O=[N+]([O-])c1ccc(O[C@@H]2O[C@H](CO)[C@H](O)[C@H](O)[C@H]2O)cc1
Briefly: purified protein. The data set is classed as biochemical, Agrobacterium fabrum. The following applies: 30 °C, pH 7, 50 mM phosphate.

Substrate in data set [5]: O=[N+]([O-])c1ccc(O[C@@H]2OC[C@@H](O[C@@H]3OC[C@@H](O[C@@H]4OC[C@@H](O)[C@H](O)[C@H]4O)[C@H](O)[C@H]3O)[C@H](O)[C@H]2O)cc1
Description: purified protein. It counts as biochemical, Flavobacterium johnsoniae. The following applies: 30 °C, pH 6, 50 mM phosphate.

Substrate in data set [6]: C[C@@H]1O[C@@H](Oc2ccc([N+](=O)[O-])cc2)[C@@H](O)[C@H](O)[C@@H]1O
Briefly: purified protein. The data set is classed as biochemical, Spirosoma linguale. The following applies: 30 °C, pH 5, 50 mM citrate-phosphate.

Usually Km stands for the concentration of substrate that gives half-maximal velocity. `O=[N+]([O-])c1ccc(O[C@@H]2OC[C@H](O)[C@H](O)[C@H]2O)cc1` [4NP-α-Ara]: the Km in data set [1] is 220 ± 87 µM.

B1: Xylan β-1,4 Xylosidase (SlXyn39) (Spirosoma linguale DSM 74) (protein)
chain: MPLLRRFCLQTGHLSALFFGLVVSVAFGSIDSHAQTSPDKPVAIQVDLTKDKGPLKPIWAWFGYDEPNYTYMKDGRKLLTEISQLSKVPVNVRVHSLLVTGDGTAALKWGSTNAYTEDKAGNPIYNWTIIDKIFDTFIERGMKPIAQIGFMPEALSTKPQPYRHYWKPGDNYNDIYTGWAYPPKDYKKWSELVYQWVKHSVQRYGQKEVESWYWELWNEPNISYWKGTTEEYIKLYDYTADAVKRALPTAKIGGPEVTGPNWDVSEKFFRAFMDHVVKGTNAVTGKVGTPIDFITFHAKGAPKVVNGVVQMNMGTQLRDIDKGFAIVASYPSLKNLPIIIGESDPEGCAACSEDLHPQNAYRNGTMYSSYTAASFARKYDLAEARGVNLAGAVTWGFEFEDQAWFRGFRDLATNGVDKPVLNVFRMFGMMQGNRVAVNTDLAYNAKKIRDESVRGEPDINALATKDAQSASVMVWNYHDDNVQGPGSPVSLKINGLTAKKVWVQHYRIDQQFSNSYEVWKKMGSPKAPTAEQVAELEKAGQLQLLASPTWVTVEKGVLTMPFQLPRQGVSLVKVSW
notes: full-length codon-optimised synthetic gene, pET-28a(+), C-terminal 6xHis, E. coli BL21(DE3) pLysS, 65 kDa
As usually defined, the kcat is the number of substrate molecules converted per active site and unit of time at saturation. What is called kcat/Km is the turnover number divided by the Michaelis constant. Regarding B1, in the data set “purified protein [2]”, the Km was determined as 80 ± 9 µM, the kcat was found to be 2.17 s⁻¹ and the kcat/Km was determined as 26900 M⁻¹ s⁻¹.

B2: β-Mannosidase (AfMan2) (Agrobacterium fabrum str. C58) (protein)
chain: MISSSTPETVIDLAGLWHLASVEGDHATEISIPGDIHSALKNAAIIPDPYHGANEKAVQWVAQQDWIIERTFILDDAEASWYLDIDYLDTVAIVFVNDVPVLSADNCFRRYRPDISRAVRPGENTIRIHFHSNITAGAERQARQPFYIPYHPGNSPIANGNMLRKPQCHFGWDWNIAIAPLGLYGKILLKRLDTARIEHVVSSQHHVEGGVELHVAVTLFAEGPASLPVYLSLGDERLRLECGVGAGETVVRHVFFVENPDLWWPAGSGEQTLYKLTVELPDETVTRQIGFRTIELLTDKDEAGSRFAFRINGREIFCRGANWIPADALYSLTSREKTEDLLCSAVEANMNMIRVWGGGFYEEDWFYDLCDRLGLLVWQDFMFACNLYPCSEDFLDNVEHEVDYQVKRLSSHPSIALWCGDNELVGALTWFDESRNNRDRYLVAYDRLNRTIEKALKKATPEALWWPSSPASGYLDYGDAWHADGSGDMHYWSVWHENKSFDNYHQVKPRFCSEFGFQSYTSMPVIRTYAEDKDMNIASPVIELHQKNVGGNERIAGTMFRYFRFPRDFENFVYLSQVQQALAIRTAVDYWRSLKPHCMGTLYWQLNDTWPVASWSSLDYGGGWKALHYAARRFFQPVAVSAIPSADGRRVTFSMVNDTAEDVEIDMNIVALAMDGNRVPLKSANGTCTSDKAATLTDIDMDSLPDGAILAWNFIASNGMTGEGHHVRDTYKALELQPAGLEFSVGPLKNGQFEIDVTAAGLALFIMLEADQPGRYSDNLFDLAAGETRRIIFTPKGAGPQPHFRIFDLHTCQSSPNPGIETMRRKA
notes: full-length codon-optimised synthetic gene, pET-28a(+), C-terminal 6xHis, E. coli BL21(DE3) pLysS, 93 kDa
As to B2, in “purified protein [3]”, the Km is 680 ± 219 µM, the turnover number (kcat) is 1350 s⁻¹ and the kcat/Km was found to be 1.98e+06 M⁻¹ s⁻¹. Moreover, in “purified protein [4]”, the Michaelis constant (Km) was found to be 250 ± 62 µM, the kcat was determined as 269 s⁻¹ and the kcat/Km came to 1.08e+06 M⁻¹ s⁻¹.

B3: Oligosaccharide reducing end Xylanase (FjXyn8) (Flavobacterium johnsoniae UW101) (protein)
chain: MTVHHNITNGYLSKIHLLLLIFALIVPAFVISQNKKKIDRELKKPQYRNLFKEAGYSQDDIDKKLTKAYYDVFEGPDKVYFEEGDSLGYVSDVKNKDARTEGMSYGMMVAVQFNKKDVFDRLWRWSVKYMQHQDGPREGYFAWSVNPQTKKQNSAGSASDGELYYITSLLFASNKWGNDTGINYYKEARRILDAMWKKDGTGNIYNIINTEHKQISFVPEGGGYNWTDPSYHVPAFYEIWALYAKDGHEQFYKECAEVSRKFLHKACHPVTGLTSDYTEFNGEPHPTPWLPPGFRYDSWRVPMNIAMDYTWYGKDKEWQEDYAKRFQNFLRSKGLETYEDQFNLDGSTPEFILQAGPVKKLRHSIGLVGTAATASLVNKDKASIDFVHAVWNAKLEPYEDGYFDPYYDGLMYLFSLMHLSGNYQIIVPKG
notes: full-length codon-optimised synthetic gene, pET-28a(+), C-terminal 6xHis, E. coli BL21(DE3) pLysS, 50 kDa
Take B3: in “purified protein [5]”, the Km is 790 ± 222 µM, the turnover number (kcat) came to 5.15 s⁻¹ and the kcat/Km was 6530 M⁻¹ s⁻¹.

B4: α-L-Fucosidase (SlFuc29) (Spirosoma linguale DSM 74) (protein)
chain: MKKQITSILFSLLVSTSALAQQHSEQNHDKYVWPKDELVKKKLANWQDIKFGLLMHWGTYSEWGVVESWSLCPEDEGWCERRGPYAANWFEYKKAYENLQTTFNPTKFNPERWANAAKGAGMKYVVFTTKHHDGFCMFDTKLTDYKITDKKTPFSSNPRSNVTKEILGAFRQQGFMVGTYFSKPDWHTEDYWWTYFPPKDRNVSYDPKKYPDHWKKFSDFTYNQIEELMTGYGNVDILWLDGGWVRPASTIDSTVSWQRTIPYSQDINMARIAGMARQHQPGLLVVDRTVSGEFENYVTPEQSIPDHYMPIPWESCITMGDSWSYIPKENFKPARKLVQTLVDIVAKNGNLLLNIAPGPDGEWHEEAYQRLQEIGKWITVNGESIYGTKPLAPYRQGQWAFTSNNKAVYASYLPSESEQQLPASISLPALTVAPNAKVTVLGASQALKLTKTKDGFSVVVPEKVRQQLAGQPVWVFKIG
notes: full-length codon-optimised synthetic gene, pET-28a(+), C-terminal 6xHis, E. coli BL21(DE3) pLysS, 55 kDa
For the molecule B4, in the data set “purified protein [6]”, the Km worked out at 580 ± 20 µM, the turnover number (kcat) worked out at 53.1 s⁻¹ and the kcat/Km is 91800 M⁻¹ s⁻¹.
